Measured values: patent US20090239765A1, “GENES WHOSE EXPRESSION IS INCREASED IN RESPONSE TO STIMULATION BY CORTICOTROPIN-RELEASING HORMONE” (priority 2003, published 2009)

Legend:
CRH-R1 [1] = biological target: T1, CRH-R1 (Mus musculus, UniProt P35347); test: Microarray transcriptional response to CRH in AtT-20 cells (Murine Genome U74Av2 arrays); type: cell-based
T1 construct: host or cells: AtT-20 (murine pituitary corticotroph adenoma cells)
T1 sequence (P35347 24-415): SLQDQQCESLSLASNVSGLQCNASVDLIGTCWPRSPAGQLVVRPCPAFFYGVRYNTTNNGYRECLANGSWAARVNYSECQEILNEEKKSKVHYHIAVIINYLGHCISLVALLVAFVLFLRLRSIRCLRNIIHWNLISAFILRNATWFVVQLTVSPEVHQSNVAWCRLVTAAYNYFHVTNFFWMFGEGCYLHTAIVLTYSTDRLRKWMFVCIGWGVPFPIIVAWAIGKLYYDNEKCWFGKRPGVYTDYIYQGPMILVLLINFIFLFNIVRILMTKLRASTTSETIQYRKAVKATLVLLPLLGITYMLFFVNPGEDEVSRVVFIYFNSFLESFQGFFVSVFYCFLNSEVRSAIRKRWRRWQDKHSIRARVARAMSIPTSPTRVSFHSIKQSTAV
Protocol: (§1) Cell culture and sample preparation—AtT-20 cells were purchased from ATCC and were maintained at 37° C. in 5% CO2 in humidified air in Dulbecco's modified Eagle's medium (Invitrogen Life Technologies) containing 10% fetal bovine serum, 50% horse serum and 4.5 g/L D-glucose. For experiments cells were seeded in 25 cm^2 flasks. The medium was replaced 48 h later and cells were treated with either 0.1% DMSO, 1 μM CRH (Sigma) in DMSO, 1 μM R121919 in DMSO or 1 μM CRH+1 μM R121919 in DMSO for 0, 0.5, 1, 2, 4, 8 and 24 h in fresh medium. The incubation was stopped by aspirating the incubation medium and adding 3 ml Trizol (Invitrogen Life Technologies) for lysis of the cells. Total RNA was extracted using Trizol according to the instructions of the manufacturer. 100 μg total RNA was further purificied using Rneasy kit (Qiagen) with DNAseI treatment on column.
Microarray hybridization—cRNA was prepared as follows. Reverse transcription was performed on 10 μg of total RNA for 1 h at 42° C. using a T7-oligo(dT)24-primer and SuperscriptII RT (Invitrogen Life Technologies). Second strand cDNA synthesis was done for 2 h at 16° C. using Escherichia coli DNA Polymerase I, DNA ligase and RNAseH (Invitrogen Life Technologies). After phenol-chloroform extraction using phase-lock gel (Eppendorf) in vitro transcription was performed for 6 h at 37° C. using the Bioarray high-yield RNA transcript labeling kit with Biotin labeled ribonucleotides (Enzo Diagnostics). cRNA samples were purified on Qiagen Rneasy columns followed by fragmentation for 35 min at 95° C. cRNA yields were between 50 and 100 μg. Samples were processed on GeneChips (Affymetrix, Santa Clara, Calif.). In order to check the quality of each sample, 5 μg of labeled cRNA was run on Test2-arrays. Actual experiments were performed on Murine Genome U74Av2 arrays, containing probe sets interrogating approximately 12,000 full-length mouse genes and EST clusters from the UniGene database (Build 74). Hybridization was performed using 15 μg CRNA for 16 h at 45° C. under continuous rotation. Arrays were stained in Affymetrix Fluidics stations using Streptavidin/Phycoerythrin (SAPE) followed by staining with anti-streptavidin antibody and a second SAPE staining. Subsequently arrays were scanned with a HP-Laserscanner and data were analyzed with the Microarray Suite Software (Affymetrix). No scaling or normalization was performed at this stage. Quality of the experiment was assessed based on the percentages present calls across all samples which was on average 47.06±2.45%. The cytoplasmic β-actin and GAPDH 5′/3′ ratios were 1.10±0.08 and 0.93±0.05 respectively.
Basically this alignment sets the average intensity of one array to the average measured across all arrays, compensating for array to array variations in hybridization, washing and staining, ultimately allowing a reasonable comparison between arrays. After alignment polished data were analyzed using weighted spectral mapping. Weighted spectral mapping is an unsupervised multivariate analysis method which includes double-centering of the data combined with a specialized visualization representing the two highest principle components. Even though double-centering removes the “size” component of the array data, this information is reintroduced in the visualization via the area of the symbols representing the size of the respective samples and genes. This method allows the reduction of a large microarray dataset and provides means to visually inspect and thereby identify clusters of genes and/or subjects in the data (7). A more detailed analysis was carried out using the OmniViz program. All records which were absent in all experiments were removed and all signals less than 20 were set to 20. Gene expression fold differences for CRH, R121919 and CRH+R121919 treatments were calculated at each timepoint. For those calculations signals at corresponding timepoints in DMSO treated samples were used to calculate ratios. […]

CRH-R1 [2] = biological target: T1, CRH-R1; test: c-fos mRNA levels by quantitative RT-PCR in AtT-20 cells; type: cell-based, murine
Protocol: as §1, with “100 μg total RNA was further purificied using Rneasy kit (Qiagen) with DNAseI treatment on column.” left out
Quantitative RT-PCR—Microarray data were confirmed using real time PCR analysis. […] Quantitative PCR was performed on a ABIPrism 7700 cycler (Applied Biosystems) using a Taqman PCR kit. […] A linear regression line calculated from the standard curves allowed the determination of transcript levels in RNA samples from the different time points.
Transcriptional response to CRH was studied in the CRH-R1-expressing murine AtT-pituitary corticotroph-derived adenoma cell line. Whereas CRH-R1 was readily detectable both by real time quantitative RT-PCR (RTq) and western blot, CRH-R2 expression could not be discerned in AtT-20 cells. […]

CRF1 mRNA = CRF1 mRNA in AtT-20 cells exposed to CRF; type: cell-based, murine; details: AtT-20 cells exposed to 1 μM CRF
Protocol: as §1
Quantitative RT-PCR—Microarray data were confirmed using real time PCR analysis. First strand cDNA synthesis was performed on 0.5 μg total RNA using random hexamer primers and SuperscriptII RT (Invitrogen Life Technologies). Quantitative PCR was performed on a ABIPrism 7700 cycler (Applied Biosystems) using a Taqman PCR kit. […] A linear regression line calculated from the standard curves allowed the determination of transcript levels in RNA samples from the different time points.

[3] = biological target: corticotropin-releasing hormone receptor 1 (CRH-R1), endogenous on murine AtT-20 cells (murine) (UniProt P35347); test: cell-based or functional assay

Q: CCCN(CCC)c1cc(C)nc2c(-c3cnc(N(C)C)cc3C)c(C)nn12 [R121919] was tested. Which “suppression of CRH-induced transcriptional responses (microarray)” value (CRH-R1 [1]; 1 μM CRH + 1 μM R121919) did it give?
A: Its value is “suppressed”.

Q: What about the “suppression of CRH-elicited c-fos transcription” value (CRH-R1 [2]; 1 μM CRH in the presence of 1 μM R121919) of the same compound?
A: The value was “almost completely suppressed”.

Q: How did the “alterations in CRF1 mRNA” value (CRF1 mRNA) turn out when “CRH: Corticotropin releasing hormone, a 41-amino acid polypeptide (Sigma)” was run?
A: The value was “not detect any alterations”.

Q: And the “number of regulated genes (greater than 2-fold change in transcript levels at any one time point, relative to DMSO, differing from antagonist treatment)” value (CRH-R1 [1]; 1 μM CRH, 0.5 to 24 h)?
A: The value was 111 genes.

Q: What about the “number of intermediate responders (responding after 1 to 2 hours of treatment)” value (CRH-R1 [1]; 1 μM CRH, 1 to 2 hours) of the same compound?
A: Its value is 32 genes.

Q: What about the “number of early responders (2-fold change after 30 minutes treatment)” value (CRH-R1 [1]; 1 μM CRH, 30 minutes) of the same compound?
A: The value was 26 genes.

Q: What about the “number of late responders (response after 2 hours or more)” value (CRH-R1 [1]; 1 μM CRH, 2 hours or more) of the same compound?
A: The value was 53 genes.

Q: What about the “direction of regulation of all responder genes” value (CRH-R1 [1]; after exposure to CRH) of the same compound?
A: The value was “up regulated”.

Q: What about the “c-fos transcription (c-fos mRNA levels by RTq)” value (CRH-R1 [2]; 1 μM CRH, levels already going down after 0.5 to 1 h) of the same compound?
A: The value was “transient surge”.

Q: How did the microarray gene expression in AtT-20 cells (greater than 2-fold change in transcript levels against DMSO) [3] turn out when “corticotropin-releasing hormone (CRH) (ligand)” was run?
A: Its microarray gene expression in AtT-20 cells (greater than 2-fold change in transcript levels against DMSO) is 111 genes.
